Literature values as cited in patent US6100293A, “Tetracyclic triterpene derivatives with immunosuppressant activity” (Merck & Co., Inc., priority 1998, dated 2000).

Target: T1, Kv 1.3 channels (Homo sapiens, UniProt P22001)
T1 construct: expressed in transfected cells; host or cells: CHO cells
Details: reference peptide used at saturating concentration to set the efflux window; read-out: IC50 (blocker of Kv 1.3 channels)

T1 sequence (P22001 whole entry): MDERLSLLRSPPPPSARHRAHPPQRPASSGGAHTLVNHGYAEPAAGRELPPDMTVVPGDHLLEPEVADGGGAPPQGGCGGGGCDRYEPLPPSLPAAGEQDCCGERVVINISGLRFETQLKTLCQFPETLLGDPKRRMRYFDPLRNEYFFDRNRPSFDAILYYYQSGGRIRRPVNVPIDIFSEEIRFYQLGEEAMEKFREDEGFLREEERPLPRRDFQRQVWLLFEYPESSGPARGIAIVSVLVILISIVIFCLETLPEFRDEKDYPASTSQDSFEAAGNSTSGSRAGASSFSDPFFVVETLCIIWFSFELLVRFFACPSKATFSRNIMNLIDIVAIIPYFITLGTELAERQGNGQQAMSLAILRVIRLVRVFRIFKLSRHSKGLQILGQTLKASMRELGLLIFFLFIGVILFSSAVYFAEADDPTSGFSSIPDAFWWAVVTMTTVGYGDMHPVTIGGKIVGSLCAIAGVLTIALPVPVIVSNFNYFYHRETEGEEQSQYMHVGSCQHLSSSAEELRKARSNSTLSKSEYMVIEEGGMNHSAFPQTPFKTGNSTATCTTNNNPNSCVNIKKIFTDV

Q: For “margatoxin (TIINVKCTSPKQCLPPCKAQFGQSAGAKCMNGKCKCYPH; UniProt P40755 1-39, looked up)”, which IC50 is on record?
A: 0.1 nM
